# Results reported in patent publication US20190105401A1.
# Molecular target: Hsp60 (chaperonin 60) of human Caco-2 cells (human) (UniProt P10809)
# Assay: cell-based or functional assay
# Hsp60 (chaperonin 60) of human Caco-2 cells (human), sequence (P10809 27-573): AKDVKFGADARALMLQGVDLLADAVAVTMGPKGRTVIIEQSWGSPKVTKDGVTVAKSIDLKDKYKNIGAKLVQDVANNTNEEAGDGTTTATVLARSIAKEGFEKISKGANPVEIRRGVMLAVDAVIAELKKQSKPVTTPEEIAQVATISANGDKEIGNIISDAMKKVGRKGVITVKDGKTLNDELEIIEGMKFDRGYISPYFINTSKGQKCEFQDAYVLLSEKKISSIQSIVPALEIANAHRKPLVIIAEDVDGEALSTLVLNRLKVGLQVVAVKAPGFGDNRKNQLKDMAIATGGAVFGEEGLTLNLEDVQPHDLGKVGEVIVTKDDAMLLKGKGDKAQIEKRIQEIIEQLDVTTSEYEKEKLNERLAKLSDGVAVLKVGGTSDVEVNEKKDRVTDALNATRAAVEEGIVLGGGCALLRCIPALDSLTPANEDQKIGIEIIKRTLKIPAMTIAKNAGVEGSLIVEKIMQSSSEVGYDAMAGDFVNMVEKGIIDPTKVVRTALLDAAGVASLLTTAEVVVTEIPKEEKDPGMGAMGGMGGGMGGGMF
substance,measurement,value
Listeria adhesion protein (LAP) on L. monocytogenes F4244 (WT) bacteria (ligand),"IKK-β protein expression level, shRNA vector control Caco-2 cells infected with the WT strain, increase over uninfected",54%
same,"p65 protein expression level, shRNA vector control Caco-2 cells infected with the WT strain, increase over uninfected",62%
